Measurements as given in article PMC6141012 (Nature, 2018).

T1: Prp39 (S. cerevisiae, UniProt P39682 1-629)
T1 sequence: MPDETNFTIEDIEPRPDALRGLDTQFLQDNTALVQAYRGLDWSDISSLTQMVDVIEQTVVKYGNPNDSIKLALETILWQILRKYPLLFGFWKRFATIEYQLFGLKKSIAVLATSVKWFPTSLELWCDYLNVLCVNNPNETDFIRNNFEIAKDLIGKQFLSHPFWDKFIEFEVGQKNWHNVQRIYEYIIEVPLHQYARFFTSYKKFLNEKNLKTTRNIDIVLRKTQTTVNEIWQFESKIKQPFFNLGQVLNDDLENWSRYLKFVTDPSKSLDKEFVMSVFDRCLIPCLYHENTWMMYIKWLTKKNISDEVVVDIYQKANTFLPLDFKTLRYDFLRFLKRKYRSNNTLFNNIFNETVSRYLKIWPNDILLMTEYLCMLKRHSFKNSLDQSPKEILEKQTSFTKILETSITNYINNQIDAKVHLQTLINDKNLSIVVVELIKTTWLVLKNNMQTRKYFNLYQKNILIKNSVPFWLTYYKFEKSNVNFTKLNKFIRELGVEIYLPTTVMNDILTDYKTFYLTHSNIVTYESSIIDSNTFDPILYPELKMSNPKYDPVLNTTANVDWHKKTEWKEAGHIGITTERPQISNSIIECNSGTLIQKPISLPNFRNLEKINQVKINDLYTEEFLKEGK

T2: Snu71 (S. cerevisiae, UniProt P53207 1-620)
T2 sequence (looked up): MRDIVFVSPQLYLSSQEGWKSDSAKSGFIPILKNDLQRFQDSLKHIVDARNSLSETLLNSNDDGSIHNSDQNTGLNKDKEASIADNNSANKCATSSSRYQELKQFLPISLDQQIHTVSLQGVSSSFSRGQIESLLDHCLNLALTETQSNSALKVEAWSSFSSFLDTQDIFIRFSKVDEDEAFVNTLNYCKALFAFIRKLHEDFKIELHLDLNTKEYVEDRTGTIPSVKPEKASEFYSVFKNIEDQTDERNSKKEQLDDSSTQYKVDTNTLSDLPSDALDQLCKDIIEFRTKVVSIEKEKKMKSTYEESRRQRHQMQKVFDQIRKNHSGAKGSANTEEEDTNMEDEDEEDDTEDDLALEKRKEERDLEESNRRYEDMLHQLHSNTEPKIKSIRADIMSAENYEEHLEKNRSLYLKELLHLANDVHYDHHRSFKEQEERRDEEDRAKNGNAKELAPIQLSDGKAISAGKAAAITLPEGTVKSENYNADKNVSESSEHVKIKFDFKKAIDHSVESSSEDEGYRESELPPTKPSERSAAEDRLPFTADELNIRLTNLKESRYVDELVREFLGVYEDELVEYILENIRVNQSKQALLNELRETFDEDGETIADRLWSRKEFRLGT

B1: Nam8 (natural protein, S. cerevisiae, UniProt Q00539 1-523, looked up)
chain: MSYKQTTYYPSRGNLVRNDSSPYTNTISSETNNSSTSVLSLQGASNVSLGTTGNQLYMGDLDPTWDKNTVRQIWASLGEANINVRMMWNNTLNNGSRSSMGPKNNQGYCFVDFPSSTHAANALLKNGMLIPNFPNKKLKLNWATSSYSNSNNSLNNVKSGNNCSIFVGDLAPNVTESQLFELFINRYASTSHAKIVHDQVTGMSKGYGFVKFTNSDEQQLALSEMQGVFLNGRAIKVGPTSGQQQHVSGNNDYNRSSSSLNNENVDSRFLSKGQSFLSNGNNNMGFKRNHMSQFIYPVQQQPSLNHFTDPNNTTVFIGGLSSLVTEDELRAYFQPFGTIVYVKIPVGKCCGFVQYVDRLSAEAAIAGMQGFPIANSRVRLSWGRSAKQTALLQQAMLSNSLQVQQQQPGLQQPNYGYIPSSTCEAPVLPDNNVSSTMLPGCQILNYSNPYANANGLGSNNFSFYSNNNATNTQATSLLADTSSMDLSGTGGQQVIMQGSEAVVNSTNAMLNRLEQGSNGFMFA
B2: Prp42 (natural protein)
chain: MDKYTALIHDENFSTLTLNVSRYPKSLAYWEKLLNYIVKASAPICKSTEPQLLKLIRCTYSSMLNEFPYLENYYIDFALLEYKLGNVSMSHKIFQRGLQAFNQRSLLLWTSYLKFCNNVISHQKQLFKKYETAEEYVGLHFFSGEFWDLYLEQISSRCTSSKKYWNVLRKILEIPLHSFSKFYALWLQRIDDIMDLKQLSQLTSKDELLKKLKIDINYSGRKGPYLQDAKKKLKKITKEMYMVVQYQVLEIYSIFESKIYINYYTSPETLVSSDEIETWIKYLDYTITLQTDSLTHLNFQRALLPLAHYDLVWIKYSKWLINSKNDLLGAKNVLLMGLKFSLKKTEIIKLLYSVICKLNEYVLLRNLLEKIESSYSDNVENVDDFEIFWDYLQFKTFCQNSLYSSRYSDSQSNGLLNKELFDKVWKRLSCKEKKSGQEILLNNLVQFYSKDTVEFVEKNIFQKIIEFGWEYYLQNGMFWNCYCRLIYFDTSRSYLDKRQYIVRKIWPQIDKKFAQSVLPSLTEFCESYFPEEMDTLEEMFTEEP

Assays:
Assay in all cases: cryo-EM structure
Prp39 = target: T1, Prp39
Prp42 = target: B2
Snu71 = target: T2, Snu71
Nam8 = target: B1

Row | binding result (Prp39) | binding result (Prp42) | binding result (Snu71) | binding result (Nam8) | Binder
1 | binds |  |  |  | Lea1 (natural protein, S. cerevisiae, UniProt Q08963 1-238, looked up) MKFTPSIVIDAPQYYVDHFNGKYNVDKCVILRDLQLETDSESMPSSLKHLTKPTHILDLTNNDLIMIPDLSRRDDIHTLLLGRNNIVEVDGRLLPMNVQNLTLSNNSIRRFEDLQRLRRAPRTLKNLTLIGNQVCHLANYREHVLRLVPHLETLDFQNVTAEERKSAMSFPRQADGDTLGPVNTAIRDNGSRDKTMEIMNLVVSKMTVERRNELKKQLAEATSLEEIARLEKLLSGGV
2 | binds | binds |  |  | B1
3 |  |  | binds |  | Snu56 (natural protein, S. cerevisiae, UniProt Q03782 1-492, looked up) MRPRRRGLAYHHTKPKGQLSQGHYPTTSNDGQRRKVGNSEAFQSFDIWKNLDRIRSTKKNAGQFIKGSLLILPMRTEDKQQFDECMDELHKYISKDILRCYPQKEQKDEGMLFYIVLKDFNILDSCFVLSVLLAFQKRLWMAPSEKSYFRVPKNINLTGSFYLPKNIETGRGHIITSYRREQPSSSIVEVGFNVVPDFQQFQVKACHVSKFMNELSNFFSQVEFGKCEANVINYFKREYNRTYSQISLALYELPLIGDGLFDIKSYISKTRPIIETSKAQMIKHISEMKAYNEISGLQGDQFPRQQRPLSNSPSSNSISSSQTIEAGATSYQTQPQRHAVNKPSNVLNSSNRHSGPKTFEDGRYSEGNKPGFMTQDEIKQHCIGTIKASMDAVKKKSSYQILKTYVRCPRQNYIDIVYQNLNDLRSKTNCNIVVLNLNNLHESQMWLESLNTTNYTIFAQAPHPSTIRVISIGGVGEYIVKALELILNILEH
4 | binds | binds |  | binds | Yhc1 (natural protein, S. cerevisiae, UniProt Q05900 1-231, looked up) MTRYYCEYCHSYLTHDTLSVRKSHLVGKNHLRITADYYRNKARDIINKHNHKRRHIGKRGRKERENSSQNETLKVTCLSNKEKRHIMHVKKMNQKELAQTSIDTLKLLYDGSPGYSKVFVDANRFDIGDLVKASKLPQRANEKSAHHSFKQTSRSRDETCESNPFPRLNNPKKLEPPKILSQWSNTIPKTSIFYSVDILQTTIKESKKRMHSDGIRKPSSANGYKRRRYGN
5 | binds |  | binds |  | B2
